Results taken from the DeepSol protein solubility set.

Test: soluble on expression in E. coli; label from the status in PepcDB or PDB records

Sequence	soluble on expression in E. coli
SRAMPASLSTAALRSDNVSPVDPLGVQREFDHYVSVLRDRLGLQVVMLPADEELPDCVFVEDTAVVCGSTALITRPGAPSRRSETVAMKGALTELGLNIVEMNDESATMDGGDVLFTGKEFFVGLSKRTNQRGAEILANTFKDYAVSTIPVEEGLHLKSFCSMAGPNLIAIGSSDAAQKALKVIQQMSDCKYEKLTVPDDRAANCVYMNLPGKGDVLLHCTPEVFPESAKVFERLKSHMLIPVSNQEKMKVDGALTCLSVLLRI	soluble
SREGVLYDGDSLAYIIAKHRQQLGELQGGVAGTLMTNLAVEQAFERLGIPFARANVGDRYVSELLQQNDWYLGAENSGHIICRDKHTTGDGIISALQVLYALRDTGLTLADFMRDVPFF	not soluble
SRMQRDLSDSTVLRNLGVAFSYSLIAYHSVAKGNDKLQINKSALQKDLSENWEVLAEAIQTVMRRYNEPNAYEQLKELTRGQMIDAENLKKFIKTLSIPEEAKAELMKLTPETYTGLATQLVKAFS	not soluble
SRNICYDAFVSYSERDAYWVENLMVQELENFNPPFKLCLHKRDFIHGKWIIDNIIDSIEKSHKTVFVLSENFVKSEWCKYELDFSHFRLFDENNDAAILILLEPIEKKAIPQRFCKLRKIMNTKTYLEWPMDEAQREGFWVNLRAAIKS	soluble
SRPVFAAKPDNEAIIDAQMKKPKVPVHAIATASHPMIRFIGHPEEQKNYDFFVPWLSKLPQWIAEGKQPYVMIHTADNIIAPELAANIYKNLQNHVALPDLAPFPANDGNSQLQMF	not soluble
SSDLGSEELEEEGENDLGEYEGERNELGERHGHGKARLPNGDTYEGNYESGKRHGQGTYKFKNGARYVGDYVKNKKHGQGTFVYPDGSRYEGEWADDQRHGHGVYYYVNNDTYTGEWFNHQRHGQGTYFYAETGSKYVGTWVHGQQEGAAELIHLNHRYQGKFINKNPVGPGKYVFDVGCEQHGEYRLTDVERGEEEEEEETLVSIVPKWKALKITELALWTPTLSEEHPPAEGQGQEEVQGATGAGEPSDDIQAEGFEVDAEPRTGEEDIDFRQESQENSYDLDQGNPNFDEEQLDLQE	soluble
SSGHIEGRHMNKQATEILNEYFYSHLSNPYPSEEAKEELAKKCGITVSQVSNWFGNKRIRYKKN	soluble
SSKALLALKSQVEKRKAELQTQNRTKKWKRIGDQWKEEDKIQEQETFLEAHSPIESKQENGTETSNKEPPLLKEEVIERLRAWEQPATLFGETDYERYIRLRDLELRNSEESKGQRNIFQQKLRQFKEKDELENFYRVTEMELPSKGSAAQKVKEEIYAAEEGPEFFKTPEEYCFRYMRRLLKMWKAEVEQLDEETKRTSLGRKTLATFEQTKEYLKPLFRKLKKQQLDKSILTSLEKILRYVEQREYVLANDEYLRLAIGNAPWPVGATMVGIHARTAREKISEGKIAHVMNDEETRKYIQAVKRLITLSQKWYPTVPSKMVVG	soluble
SSPEYAMEGIFSVKSDVFSFGVLVLEIVSGKRNRGFHNSGQDNNLLGYTWENWKEGKGLEIVDSIIVDSSSSMSLFQPHEVLRCIQIGLLCVQERAEDRPKMSSVIVPFCTR	soluble
SSPFLYLVLLVLGLHATIHCASPEGKVTACHSSQPNATLYKMSSINADFAFNLYRRFTVETPDKNIFFSPVSISAALVMLSFGACCSTQTEIVETLGFNLTDTPMVEIQHGFQHLICSLNFPKKELELQIGNALFIGKHLKPLAKFLNDVKTLYETEVFSTDFSNISAAKQEINSHVEMQTKGKVVGLIQDLKPNTIMVLVNYIHFKAQWANPFDPSKTEDSSSFLIDKTTTVQVPMMHQMEQYYHLVDMELNCTVLQMDYSKNALALFVLPKEGQMESVEAAMSSKTLKKWNRLLQKGWVDLFVPKFSISATYDLGATLLKMGIQHAYSENADFSGLTEDNGLKLSNAAHKAVLHIGEKGTEAAAVPEVELSDQPENTFLHPIIQIDRSFMLLILERSTRSILFLGKVVNPTEA	not soluble
SSSRGFNIKARGLCNNNNGGGGTGAKCGRWNPTVEQVKLLTDLFKAGLRTPSTDQIQKISMELSFYGKIESKNVFYWFQNHKARERQKCRKISTVKFDHRQDTDLSKPRRDNVRRHQLPAKG	soluble
STATIDRRLSTLNPNAPVFDPVEFREVEDFSPKWWDLVTTSKWFRDFWLSANSENEFLGGDDFSVMEEEFEEMIASSDGGSMADTVTEADVASYLKMLLNIAESTKEKIYRSKVSSCSPKYNQKKYMNPNFNCRRNHHIYQPR	soluble
STDIQMTQSPSSLSASVGDRVTITCQASQDINNYLIWYQQKPGQAPKLLIYDASTLETGVPSRFSGSGSGTEFTFTISSLQPEDLATYYCQQYDNLPYTFGQGTKLEIKR	soluble
STFAYIANSESDNISVIDVTSNKVTATIPVGSNPMGAVISPDGTKVYVANAHSNDVSIIDTATNNVIATVPAGSSPQGVAVSPDGKQVYVTNMASSTLSVIDTTSNTVAGTVKTGKSPLGLALSPDGKKLYVTNNGDKTVSVINTVTKAVINTVSVGRSPKGIAVTPDGTKVYVANFDSMSISVIDTVTNSVIDTVKVEAAPSGIAVNPEGTKAYVTNVDKYFNTVSMIDTGTNKITARIPVGPDPAGIAVTPDGKKVYVALSFCNTVSVIDTATNTITATMAVGKNPYASGQFIGSIPVQPVYPSADFKSNITSGYIFLSEPVQFTDLSKDATEWKWDFGDGSSSKKQNPTHTYSETGIYTVRLTVSNSNGTDSQISTVNVVLKGSPTPS	soluble
STLPRFDSVDLGNAPVPADAARRFEELAAKAGTGEAWETAEQIPVGTLFNEDVYKDMDWLDTYAGIPPFVHGPYATMYAFRPWTIRQFAGFSTAKESNAFYRRNLAAGQKGLSVAFDLPTHRGYDSDNPRVAGDVGMAGVAIDSIYDMRELFAGIPLDQMSVSMTMNGAVLPILALYVVTAEEQGVKPEQLAGTIQNDILKEFMVRNTYIYPPQPSMRIISEIFAYTSANMPKWNSISISGYHMQEAGATADIEMAYTLADGVDYIRAGESVGLNVDQFAPRLSFFWGIGMNFFMEVAKLRAARMLWAKLVHQFGPKNPKSMSLRTHSQTSGWSLTAQDVYNNVVRTCIEAMAATQGHTQSLHTNSLDEAIALPTDFSARIARNTQLFLQQESGTTRVIDPWSGSAYVEELTWDLARKAWGHIQEVEKVGGMAKAIEKGIPKMRIEEAAARTQARIDSGRQPLIGVNKYRLEHEPPLDVLKVDNSTVLAEQKAKLVKLRAERDPEKVKAALDKITWAAGNPDDKDPDRNLLKLCIDAGRAMATVGEMSDALEKVFGRYTAQIRTISGVYSKEVKNTPEVEEARELVEEFEQAEGRRPRILLAKMGQDGHDRGQKVIATAYADLGFDVDVGPLFQTPEETARQAVEADVHVVGVSSLAGGHLTLVPALRKELDKLGRPDILITVGGVIPEQDFDELRKDGAVEIYTPGTVIPESAISLVKKLRASLDA	soluble
STLQFKVGPPFELVRDYCPVVESHTGRTLDLRIIPRIDRGFDHIDEEWVGYKRNYFTLVSTFETANCDLDTFLKSSFDLLVEDSSVESRLRVQYFAIKIKAKNDDDDTEINLVQHTAKRDKGPQFCPSVCPLVPSPLPKHQIIREASNVRNITKTKKYDSTFYLHRNHVNYEEYGVDSLLFSYPEDSIQKVARYERVQFASSISVKKPFQQNKHFSLHVILGAVVDPDTFHGENPGIPYDELALKNGSKGMFVYLQEMKTPPLIIRGRSPSN	soluble
STTTTTKKPHVLVIPFPQSGHMVPHLDLTHQILLRGATVTVLVTPKNSSYLDALRSLHSPEHFKTLILPFPSHPCIPSGVESLQQLPLEAIVHMFDALSRLHDPLVDFLSRQPPSDLPDAILGSSFLSPWINKVADAFSIKSISFLPINAHSISVMWAQEDRSFFNDLETATTESYGLVINSFYDLEPEFVETVKTRFLNHHRIWTVGPLLPFKAGVDRGGQSSIPPAKVSAWLDSCPEDNSVVYVGFGSQIRLTAEQTAALAAALEKSSVRFIWAVRDAAKKVNSSDNSVEEDVIPAGFEERVKEKGLVIRGWAPQTMILEHRAVGSYLTHLGWGSVLEGMVGGVMLLAWPMQADHFFNTTLIVDKLRAAVRVGENRDSVPDSDKLARILAESAREDLPERVTLMKLREKAMEAIKEGGSSYKNLDELVAEMCL	soluble
SVFDIYKIGVGPSSSHTVGPMKAGKEFIDDLRAMGKLRDITKITVDVYGSLSLTGKGHHTDIAIIMGLAGNSPEKVDIDSIPGFIARVEETERLPVGMHCHTVSFPREGGMNFHKTNLELHENGMQIHAWIDDEKVYSKTYYSIGGGFIVDEENFGK	soluble
SVGTTSVVKNSHEEVVQTLANSLFPAQFMNGNIHIPVAVQAVAGTYQNTAQTVHIWDPQQQPQQQTPQEQTPPPQQQQQQLQVTCSAQTVQVAEVEPQSQPQPSPELLLPNSLKPEEGLEVWKNWAQTKNAELEKDAQNRLAPIGRRQLLRFQEDLISSAVAELNYGLCLMTREARNGEGEPYDPDVLYYIFLCIQKYLFENGRVDDIFSDLYYVRFTEWLHEVLKDVQPRVTPLGYVLPSHVTEEMLWECKQLGAHSPSTLLTTLMFFNTKYFLLKTVDQHMKLAFSKVLRQTKKNPSNPKDKSTSIRYLKALGIHQTGQKVTDDMYAEQTENPENPLRCPIKLYDFYLFKCPQSVKGRNDTFYLTPEPVVAPNSPIWYSVQPISREQMGQMLTRILVIREIQEAIAVANASTMH	soluble
SVTIDHTTENAAPAQAPVSDRAWALFRALDGKGLVPDGYVEGWKKTFEEDFSPRRGAELVARAWTPRRGAELVARAWTDPEFRQLLLTDGTAAVAQYGYLGPQGEYIVAVEDTPTLKNVIVCSLCSCTAWPILGLPPTWYKSFEYRARVVREPRKVLSEMGTEIASDIEIRVYDTTAETRYMVLPQRPAGTEGWSQEQLQEIVTKDCLIGVAIPQVPTV	soluble
SYLPAENHEYVAAKEGVMNIQTNQVMKVIFQLPDYLLNRYTQGVNVSAKMIFDAFPERSFDLTFQEIDTEADPKTGSYKVTMVMERPPELGILPGMSGNAYLVSQNSGATKIPDSALFEENGKTYVWRVDDQGVVAKADITMNDNGQILQGLADGDQIIISGINVIEPGIKVRAWVKERGL	not soluble
SYPYLMLSGHQYPQMAYYRGTLKKPNQYFGPYPNSNAVRDSIQVLQKVFMLRTCEDSVFEHRDRPCLLYQIKRCTAPCVGHISEEDYRDSVREAATFLNGKTDELTRTLQHKMQTAAANLQFEEAARYRDQIQALGIMQSNQFIDSKNPNNPNDIDLLALAVSDGLVCVHWVSIRGGRHVGDKSFFPDTKNDPEPNGQDYAEAFVAQHYLGKSKPDIIISNFPVPDALKEALEGEHGKQMQFVTKTIGERKVRLKMAEQNAQMAIAQRRLQQSSQQHRIDELAKILGMDSDGLNRLECFDISHTQGEATIASCVVYDEQNIQPSQYRRYNITTAKPGDDYAAMREVLTRRYGKMQEAEANGETVKWPDAVLIDGGKGQIGVAVSVWEELGLHIPLVGIAKGPERKAGMEELILPFTGEVFRLPPNSPALHLLQTVRDESHRFAITGHRKKRDK	not soluble
TCGLRQYSQPQFRIKGGLFADIASHPWQAAIFAKHRRSPGERFLCGGILISSCWILSAAHCFQERFPPHHLTVILGRTYRVVPGEEEQKFEVEKYIVHKEFDDDTYDNDIALLQLKSDSSRCAQESSVVRTVCLPPADLQLPDWTECELSGYGKHEALSPFYSERLKEAHVRLYPSSRCTSQHLLNRTVTDNMLCAGDTRSGGPQANLHDACQGDSGGPLVCLNDGRMTLVGIISWGLGCGQKDVPGVYTKVTNYLDWIRDNMRP	soluble
TDAMSEEEIKIIINNSYNGGEINQTELAYMQNIFSFDERHAKDIMVPRTQMVTLNEPFNVDELLDTIKEHQFTRYPITEDGDKDHVKGFINVKEFLTEYASGKPIKIANYIHELPMISETTRISDALVRMQREHVHISLIIDEYGGTAGILTMEDILEEIVGEIRDEFDDDEVNDIVKLDDHTY	not soluble
